The target of test [1] is microtubules (MTs; α-tubulin/β-tubulin) (UniProt P02554).
For test [2] the target is unchanged. As to the kind of experiment: other fluorescence titration; fluorescently labeled MAP7 on MTs at different concentrations, fluorescence intensity fit to the Hill equation; 150 mM KAc.

On to “full-length (FL) MAP7 (from UniProt Q14244 1-749) (natural protein)”, for which the half-max inhibition constant of the run frequency of dynein-dynactin-BicDR1 (DDR) on MTs against MAP7 concentration (blocks dynein on MTs); 150 mM KAc in test [1] came to 10 nM. The Kd in test [2] is 111 nM.

Usually Kd stands for the free concentration of one partner at which half of the binding sites on the other are occupied at equilibrium, for simple one-to-one binding. Low readings indicate a tighter complex, high ones a looser complex.
